How the values were obtained:
[1] = OxiSelect ROS/RNS assay; settings: glycan lost; control: PON1-WT
[2] = intracellular arylesterase activity, H1993-GR; settings: glycan lost; control: PON1-WT
[3] = sandwich ELISA of IL-6, TNF-α, GM-CSF; settings: glycan lost; control: PON1-WT
[4] = intracellular paraoxonase activity, H1993-GR; settings: glycan lost; control: PON1-WT
[5] = trypsin sensitivity, PON1 ELISA, A549 Golgi/ER fraction; settings: glycan lost; control: PON1-WT
[6] = trypsin sensitivity, PON1 ELISA, PON1-overexpressing cells Golgi/ER; settings: glycan lost; control: PON1-WT
[7] = CHX chase, immunoblot, PON1 remaining, H1993-GR; settings: glycan lost; control: PON1-WT
[8] = trypsin sensitivity, PON1 ELISA, H1993-GR Golgi/ER fraction; settings: glycan lost; control: PON1-WT
[9] = ATF6 ELISA of Golgi/ER fraction, immunofluorescence; settings: glycan lost; control: PON1-WT
[10] = ELISA of secretome PON1, H1993-GR; settings: glycan lost; control: PON1-WT
[11] = SRB drug sensitivity assay; settings: glycan lost; control: PON1-WT
[12] = paraoxonase activity, H1993-GR Golgi/ER fraction; settings: glycan changed form; control: siControl
[13] = ELISA of secretome PON1, PNGase F in culture; settings: glycan lost; control: untreated

B1: paraoxonase 1 (PON1): N253G (protein)
parent chain: MAKLIALTLLGMGLALFRNHQSSYQTRLNALREVQPVELPNCNLVKGIETGSEDLEILPNGLAFISSGLKYPGIKSFNPNSPGKILLMDLNEEDPTVLELGITGSKFDVSSFNPHGISTFTDEDNAMYLLVVNHPDAKSTVELFKFQEEEKSLLHLKTIRHKLLPNLNDIVAVGPEHFYGTNDHYFLDPYLQSWEMYLGLAWSYVVYYSPSEVRVVAEGFDFANGINISPDGKYVYIAELLAHKIHVYEKHANWTLTPLKSLDFNTLVDNISVDPETGDLWVGCHPNGMKIFFYDSENPPASEVLRIQNILTEEPKVTQVYAENGTVLQGSTVASVYKGKLLIGTVFHKALYCEL
- other: ROS/RNS in admixture secretome [1]: increases
- enzymatic_activity [2]: decreases
- other: secretome cytokine levels [3]: increases
- enzymatic_activity [4]: no change
- stability_or_folding [5]: no change
- stability_or_folding [6]: decreases
- degradation_or_half_life [7]: decreases
- stability_or_folding [8]: decreases
- other: ATF6 level in co-cultured DR clones [9]: increases
- expression_or_secretion [10]: decreases
- other: EGFR-TKI resistance of GR and ER clones [11]: decreases

B2: paraoxonase 1 (PON1): SLC35C1 RNAi (protein)
parent chain: B1 parent chain
- enzymatic_activity [12]: no change

B3: paraoxonase 1 (PON1): PNGase F (protein)
parent chain: B1 parent chain
- expression_or_secretion [13]: no change

B4: paraoxonase 1 (PON1): N324G (protein)
parent chain: B1 parent chain
- stability_or_folding [8]: decreases
- expression_or_secretion [10]: decreases
- other: EGFR-TKI resistance of GR and ER clones [11]: decreases
